Assay results reported in US20040082509.

System: T1, L-JBD20 peptide (20 amino acid minimal JNK-inhibitory sequence of JIP-IB1)
T1 sequence: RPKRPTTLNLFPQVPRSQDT

**Q.** For pKA, which “pKA kinase activity (substrate histone) at the tested peptide concentration” value is on record?
**A.** The value was 500 µM of the JBD20 peptides did not interfere with the activity of 6 particular kinases: ERK2, p38, pKC, p34, caK and pKA.

**Q.** With pKC as the substance, how does the “pKC kinase activity (substrate histone) at the tested peptide concentration” value read?
**A.** The value was 500 µM of the JBD20 peptides did not interfere with the activity of 6 particular kinases: ERK2, p38, pKC, p34, caK and pKA.

**Q.** For p34, which “p34 kinase activity (substrate histone) at the tested peptide concentration” value is on record?
**A.** The value was 500 µM of the JBD20 peptides did not interfere with the activity of 6 particular kinases: ERK2, p38, pKC, p34, caK and pKA.

**Q.** With caK as the substance, how does the “caK kinase activity (substrate caseine) at the tested peptide concentration” value read?
**A.** The value was 500 µM of the JBD20 peptides did not interfere with the activity of 6 particular kinases: ERK2, p38, pKC, p34, caK and pKA.

**Q.** With p38 as the substance, how does the “p38 kinase activity (substrate ATF2) at the tested peptide concentration” value read?
**A.** The value was 500 µM of the JBD20 peptides did not interfere with the activity of 6 particular kinases: ERK2, p38, pKC, p34, caK and pKA.
